Test results published in patent US20120329067A1.

Experiments:
[1] = target: ZFN with wild-type FokI cleavage domain carrying R487D (DD architecture); test: cell-based or functional assay
[2] = target: ZFN with wild-type FokI cleavage domain carrying the DAMQS interface (DS architecture); test: cell-based or functional assay

B1: ZFN with wild-type FokI cleavage domain carrying D483R (RR architecture) (enzyme, part only; not given: zinc finger domain and linker, part only)
chain, part: QLVKSELEEKKSELRHKLKYVPHEYIELIEIARNSTQDRILEMKVMEFFMKVYGYRGKHLGGSRKPDGAIYTVGSPIDYGVIVDTKAYSGGYNLPIGQAREMQRYVEENQTRNKHINPNEWWKVYPSSVTEFKFLFVSGHFKGNYKAQLTRLNHITNCNGAVLSVEELLIGGEMIKAGTLTLEEVRRKFNNGEINF
**Q.** Which results are given for B1?
**A.** stimulation of mutagenesis in an EGFP reporter cell line (P3/E4 cleavage site), relative to wt (fraction of wt activity) [1]: 0.167; stimulation of mutagenesis in an EGFP reporter cell line (P3/E4 cleavage site), relative to wt (fraction of wt activity) [2]: 0.33
